Measured values from US20220251222A1, “IL-6Ralpha/IL-8R BISPECIFIC BINDING AGENTS FOR INHIBITING CANCER CELL MIGRATION” (The Johns Hopkins University, priority 2019, published 2022).

B1: IL-6Rα ECD: recombinant human IL-6Rα extracellular domain, residues 89-303, biotinylated (protein)
chain: LLVDVPPEEPQLSCFRKSPLSNVVCEWGPRSTPSLTTKAVLLVRKFQNSPAEDFQEPCQYSQESQKFSCQLAVPEGDSSFYIVSMCVASSVGSKFSKTQTFQGCGILQPDPPANITVTAVARNPRWLSVTWQDPHSWNSSFYRLRFELRYRAERSKTFTTWMVKDLQHHCVIHDAWSGLRHVVQLRAQEEFGQGEWSEWSPEAMGTPWTESRSPPLNDIFEAQKIEWHEHHHHHH
B2: 10H2: anti-IL-8RB monoclonal antibody, expressed as hIgG1 (antibody, V domains shown)
VH: EVQLVETGGRLVQPKGSLKLSCAVSGITFKTNAMNWVRQAPGKGLEWVARIRTKSYNYATYYADSVKDRFTISRDDSQSILYLQMNNLKTEDTAMYHCVREGRWGQGTLVTVSA
VL: QAVVTQESALTTSPGETVTLTCRSSTGAVTTSNYANWVQEKPDHLFTGLIGGTNNRPPGVPARFSGSLIGDKAALTITGAQIEDEAIYFCALWYSNHLVFGGGTKLTVL

Experiments:
Human IL-6 = target: T1, Human IL-6 (Homo sapiens, UniProt P05231); assay: Yeast cell surface affinity titration of IL-6Rα ECD on IL-6-displaying yeast; assay type: binding; conditions: 2 hours at room temperature, flow cytometry; read-out: KD of soluble IL-6Rα ECD on IL-6-displaying yeast
T1 construct: Human IL-6 (residues 3-185) was cloned into the pCT302 vector; made in house; host or cells: yeast (surface display)
T1 sequence (P05231 30-212): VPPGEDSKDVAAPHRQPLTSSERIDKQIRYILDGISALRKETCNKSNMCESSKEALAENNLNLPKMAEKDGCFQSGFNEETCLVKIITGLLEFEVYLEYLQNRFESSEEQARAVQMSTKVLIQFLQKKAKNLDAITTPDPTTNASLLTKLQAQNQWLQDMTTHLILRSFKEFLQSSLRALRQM
Procedure: Human IL-6 (residues 3-185) was cloned into the pCT302 vector and presented on the surface of yeast, as described previously. (See Boder E T, Wittrup K D. Yeast surface display for screening combinatorial polypeptide libraries. Nat Biotechnol. 1997 June; 15(6):553-557. PMID: 9181578). Yeast displaying human IL-6 were incubated in PBSA containing serial dilutions of recombinant IL-6Rα ECD for 2 hours at room temperature. Cells were then washed and stained with a 1:200 dilution of Alexa647-conjugated streptavidin (Thermo) in PBSA for 15 min at 4° C. After a final wash, cells were analyzed for antibody binding using a CytoFLEX flow cytometer (Beckman Coulter).

IL-6 binding to IL-6Rα = target: T2, IL-6 binding to IL-6Rα (Homo sapiens, UniProt P08887); assay: IL-6 cell surface binding inhibition on IL-6Rα+/IL-8R− HEK 293T cells; conditions: IL-6Rα+/IL-8R− 293 T cells, biotinylated IL-6 100 nM
T2 construct: expressed in transfected cells; host or cells: HEK 293T, lentiviral transduction (IL-6Rα+/IL-8R−)
T2 sequence (P08887 20-468): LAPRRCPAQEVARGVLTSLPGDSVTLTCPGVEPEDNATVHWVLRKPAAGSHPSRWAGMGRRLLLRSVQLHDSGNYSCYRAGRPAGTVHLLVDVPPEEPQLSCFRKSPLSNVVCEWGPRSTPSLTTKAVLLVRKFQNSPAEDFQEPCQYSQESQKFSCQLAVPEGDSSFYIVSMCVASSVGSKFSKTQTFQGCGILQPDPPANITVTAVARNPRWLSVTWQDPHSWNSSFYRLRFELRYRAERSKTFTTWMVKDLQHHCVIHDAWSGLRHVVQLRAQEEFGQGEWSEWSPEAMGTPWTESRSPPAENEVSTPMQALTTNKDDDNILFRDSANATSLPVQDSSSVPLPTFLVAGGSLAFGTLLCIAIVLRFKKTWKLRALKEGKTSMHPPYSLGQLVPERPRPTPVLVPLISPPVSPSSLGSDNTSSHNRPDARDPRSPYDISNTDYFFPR
Procedure: Cells were then washed and incubated with 1:200 dilution of Alexa Fluor 647-conjugated streptavidin (Fisher Scientific, cat #: S21374) in PBSA for 15 min at 4° C. […] Curves were fitted to a first-order logistic model and IC50 values were calculated using GraphPad Prism data analysis software. Mean fluorescence intensity (MFI) of unstimulated cells was subtracted. […]

[1] = system: IL-6-mediated phosphorylation of STAT3; assay: IL-6 signaling inhibition assay (STAT3 phosphorylation) in HepG2 cells; assay type: cell-based, human; conditions: IL-6 10 nM, 20 min at 37° C.
Procedure: HepG2 cells were then fixed with 1.6% PFA, permeabilized with methanol and incubated with 1:50 dilution of Alexa Fluor 647 conjugated anti-pSTAT3 antibody (BD Biosciences, clone 4/P-STAT3) in PBSA for 2 h at room temperature. […] IC50 values were calculated using a first order logistic fitting models in GraphPad Prism data analysis software. Mean fluorescence intensity (MFI) of unstimulated cells was subtracted. Experiments were conducted in triplicate and performed twice times with similar results.

IL-8R = target: T3, IL-8R (Homo sapiens, UniProt P25025); assay: Cell surface binding on IL-6Rα−/IL-8R+ HEK 293T cells (flow cytometry); conditions: 2 hr at 4° C.
T3 construct: expressed in transfected cells; host or cells: HEK 293T, lentiviral transduction (pCDH backbone)
T3 sequence (P25025 1-360): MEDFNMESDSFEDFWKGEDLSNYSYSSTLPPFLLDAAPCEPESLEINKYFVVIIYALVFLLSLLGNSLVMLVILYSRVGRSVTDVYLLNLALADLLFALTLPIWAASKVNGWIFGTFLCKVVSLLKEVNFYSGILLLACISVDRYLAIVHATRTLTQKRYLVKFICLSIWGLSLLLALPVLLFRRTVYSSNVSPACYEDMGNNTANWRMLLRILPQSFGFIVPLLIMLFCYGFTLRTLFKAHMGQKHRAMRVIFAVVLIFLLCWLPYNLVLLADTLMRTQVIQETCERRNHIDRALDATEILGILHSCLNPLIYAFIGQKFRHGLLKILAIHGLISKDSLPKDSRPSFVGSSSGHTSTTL
Source text: GeneJuice (Sigma Aldrich) was used as the transfection reagent.
Mean fluorescence intensity (MFI) of unstimulated cells was subtracted.

human IL-6Rα ECD = target: T4, human IL-6Rα ECD (Homo sapiens, UniProt P08887); assay: Bio-layer interferometry (BLI) binding to immobilized IL-6Rα ECD; conditions: immobilized biotinylated IL-6Rα ECD, PBSA, 25° C., equilibrium titration
T4 construct: residues 89-303 of the mature protein; hexahistidine (C); made in house; host or cells: HEK 293F
T4 sequence (P08887 108-322): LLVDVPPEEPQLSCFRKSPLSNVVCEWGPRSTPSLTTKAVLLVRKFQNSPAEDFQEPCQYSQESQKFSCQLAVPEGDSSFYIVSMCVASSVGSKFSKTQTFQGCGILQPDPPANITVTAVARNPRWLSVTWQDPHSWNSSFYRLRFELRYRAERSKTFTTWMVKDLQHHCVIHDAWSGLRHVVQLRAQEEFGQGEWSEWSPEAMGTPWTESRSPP
Procedure: Biotinylated human IL-6Rα ECD was immobilized to streptavidin-coated tips for analysis on an Octet® Red96 BLI instrument (ForteBio). Less than 5 signal units (nm) of receptor was immobilized to minimize mass transfer effects. Tips were exposed to serial dilutions of the anti-IL-6R antibody tocilizumab, the anti-IL-8R antibody 10H2, BS1, or BS2 in a 96-well plate for 300 s and dissociation was measured for 600 s. Surface regeneration for all interactions was conducted using 15 s exposure to 0.1 M glycine pH 3.0. Experiments were carried out in PBSA (phosphate-buffered saline [PBS] pH 7.3 plus 0.1% bovine serum albumin [BSA, Thermo]) at 25° C. Data was visualized and processed using the Octet® Data Analysis software version 7.1 (ForteBio). Equilibrium titration curve fitting and equilibrium dissociation constant (KD) value determination was implemented in GraphPad Prism software using a first-order logistic model. Experiments were reproduced two times with similar results.

IL-6/IL-6Rα interaction = target: T5, IL-6/IL-6Rα interaction (Homo sapiens, UniProt P08887); assay: Yeast cell surface competition of IL-6/IL-6Rα binding; conditions: IL-6-displaying yeast, biotinylated IL-6Rα ECD 300 nM
T5 construct: residues 89-303 of the mature protein; hexahistidine (C); made in house; host or cells: HEK 293F (IL-6Rα ECD)
T5 sequence (P08887 108-322): T4 sequence (P08887 108-322)
Procedure: Approximately 1×10^5 human IL-6-displaying yeast per well were plated in a 96-well plate and washed with PBSA. Yeast cells were incubated with saturating concentrations of biotinylated human IL-6Rα (300 nM) and serial dilutions of unlabeled competitor antibody (either the anti-IL-6R antibody tocilizumab, the anti-IL-8R antibody 10H2, BS1, or BS2) in PBSA for 2 hours at room temperature. Cells were then washed and stained with a 1:200 dilution of Alexa647-conjugated streptavidin (Thermo) in PBSA for 15 min at 4° C. Cells were washed again and assessed for human IL-6Rα binding on a CytoFLEX flow cytometer (Beckman Coulter). Background-subtracted fluorescent signal as a fraction of receptor subunit binding in the absence of competitor antibody was plotted. Curves were fitted to a first order logistic model and half maximal inhibitory concentrations (IC50s) were computed using GraphPad Prism. Assays were performed in triplicate and repeated two times with consistent results.

Row | Molecule | Kd (Human IL-6) [nM] | IC50, competition with IL-6 binding to IL-6Rα (IL-6 binding to IL-6Rα) | IC50, inhibition of STAT3 phosphorylation [1] | KD, binding to IL-8R on cells (IL-8R) | binding affinity (KD) to IL-6Rα via BLI (human IL-6Rα ECD) | IC50, inhibition of IL-6/IL-6Rα binding (IL-6/IL-6Rα interaction)
1 | B1 | 88 |  |  |  |  | 
2 | B2 |  | no inhibitory effects | did not effect inhibition | only recognized IL-8R^+ cells | did not engage IL-6Rα | did not compete
